Measured values taken from patent US20250163162A1 (SYNTHEKINE, published 2025).

Tests used:
Experiment in all cases: cell-based or functional assay
IL10Rα/IL2Rγ receptor [1] = target: T1, IL10Rα/IL2Rγ receptor (human, UniProt Q13651 22-578; P31785 23-369)
T1 sequence (looked up) 1: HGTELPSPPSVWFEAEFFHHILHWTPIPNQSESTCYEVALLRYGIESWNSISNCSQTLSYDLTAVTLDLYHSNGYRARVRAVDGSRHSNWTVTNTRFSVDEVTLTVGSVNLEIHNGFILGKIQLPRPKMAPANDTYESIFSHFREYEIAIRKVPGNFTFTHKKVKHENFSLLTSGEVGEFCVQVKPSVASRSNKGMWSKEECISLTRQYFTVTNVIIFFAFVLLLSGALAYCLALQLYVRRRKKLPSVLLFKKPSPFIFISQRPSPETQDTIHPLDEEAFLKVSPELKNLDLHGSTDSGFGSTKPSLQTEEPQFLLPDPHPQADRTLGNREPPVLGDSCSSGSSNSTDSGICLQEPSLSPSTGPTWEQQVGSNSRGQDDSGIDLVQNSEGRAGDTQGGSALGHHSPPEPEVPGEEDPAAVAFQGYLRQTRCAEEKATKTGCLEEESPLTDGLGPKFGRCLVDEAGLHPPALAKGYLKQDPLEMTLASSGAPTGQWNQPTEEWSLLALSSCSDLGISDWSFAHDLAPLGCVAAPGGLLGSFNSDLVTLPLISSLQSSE
T1 sequence (looked up) 2: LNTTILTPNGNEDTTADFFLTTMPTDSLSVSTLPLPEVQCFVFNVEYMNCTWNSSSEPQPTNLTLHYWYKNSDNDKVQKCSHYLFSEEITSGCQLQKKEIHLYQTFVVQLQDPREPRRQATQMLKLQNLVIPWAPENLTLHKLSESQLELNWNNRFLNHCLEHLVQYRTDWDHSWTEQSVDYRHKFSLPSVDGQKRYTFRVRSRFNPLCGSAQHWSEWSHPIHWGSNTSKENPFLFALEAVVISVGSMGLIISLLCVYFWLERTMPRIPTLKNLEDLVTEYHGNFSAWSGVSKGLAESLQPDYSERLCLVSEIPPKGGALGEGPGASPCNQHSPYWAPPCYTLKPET

IL10Rα/IL2Rγ receptor [2] = target: T1, IL10Rα/IL2Rγ receptor; remark: listed apart in the source
IL10Rα/IL2Rγ receptor [3] = target: T1, IL10Rα/IL2Rγ receptor; remark: listed apart in the source
IL10Rα/IL2Rγ receptor [4] = target: T1, IL10Rα/IL2Rγ receptor; remark: listed apart in the source
IL10Rα/IL2Rγ receptor [5] = target: T1, IL10Rα/IL2Rγ receptor; remark: listed apart in the source
IL10Rα/IL2Rγ receptor [6] = target: T1, IL10Rα/IL2Rγ receptor; remark: listed apart in the source

B1: DR441(DR236-DR231) (bispecific antibody)
chain: QVQLQESGGGSVQAGGSLRLSCAASRFTYSSYCMGWFRQAPGKEREGVASIDSDGSTSYTDSVKGRFTISKDNAKNTLYLQMNSLKPEDTAMYYCALDLMSTVVPGFCGFLLSAGMDYWGKGTQVTVSSGGGSQVQLQESGGGSVQAGGSLRLSCTASGFTFDDREMNWYRQAPGNECELVSTISSDGSTYYADSVKGRFTISQDNAKNTVYLQMDSVKPEDTAVYYCAADFMIAIQAPGAGCWGQGTQVTVSSASHHHHHH
IL10Rα/IL2Rγ receptor [1]
  pSTAT3 MFI, B cells, 100 nM (unstimulated 1045): 1280 MFI
  pSTAT3 MFI, CD4+ T cells, 100 nM (unstimulated 1778): 5760 MFI
  pSTAT3 MFI, CD8+ T cells, 100 nM (unstimulated 1288): 3940 MFI
  pSTAT3 MFI, Monocytes, 100 nM (unstimulated 1787): 2130 MFI
  pSTAT3 MFI, NK cells, 100 nM (unstimulated 1149): 1660 MFI
IL10Rα/IL2Rγ receptor [2]
  pSTAT3 MFI, B cells, 0.0001 nM (unstimulated 1193.5): 1120 MFI
  pSTAT3 MFI, B cells, 0.001 nM (unstimulated 1193.5): 1130 MFI
  pSTAT3 MFI, B cells, 0.01 nM (unstimulated 1193.5): 1130 MFI
  pSTAT3 MFI, B cells, 0.1 nM (unstimulated 1193.5): 1120 MFI
  pSTAT3 MFI, B cells, 1 nM (unstimulated 1193.5): 1220 MFI
  pSTAT3 MFI, B cells, 10 nM (unstimulated 1193.5): 1540 MFI
  pSTAT3 MFI, B cells, 100 nM (unstimulated 1193.5): 1470 MFI
IL10Rα/IL2Rγ receptor [3]
  pSTAT3 MFI, CD4 T cells, 0.0001 nM (unstimulated 1887): 1810 MFI
  pSTAT3 MFI, CD4 T cells, 0.001 nM (unstimulated 1887): 1830 MFI
  pSTAT3 MFI, CD4 T cells, 0.01 nM (unstimulated 1887): 1880 MFI
  pSTAT3 MFI, CD4 T cells, 0.1 nM (unstimulated 1887): 2240 MFI
  pSTAT3 MFI, CD4 T cells, 1 nM (unstimulated 1887): 4560 MFI
  pSTAT3 MFI, CD4 T cells, 10 nM (unstimulated 1887): 6760 MFI
  pSTAT3 MFI, CD4 T cells, 100 nM (unstimulated 1887): 6350 MFI
IL10Rα/IL2Rγ receptor [4]
  pSTAT3 MFI, NK cells, 0.0001 nM (unstimulated 1315): 1250 MFI
  pSTAT3 MFI, NK cells, 0.001 nM (unstimulated 1315): 1260 MFI
  pSTAT3 MFI, NK cells, 0.01 nM (unstimulated 1315): 1270 MFI
  pSTAT3 MFI, NK cells, 0.1 nM (unstimulated 1315): 1270 MFI
  pSTAT3 MFI, NK cells, 1 nM (unstimulated 1315): 1440 MFI
  pSTAT3 MFI, NK cells, 10 nM (unstimulated 1315): 1800 MFI
  pSTAT3 MFI, NK cells, 100 nM (unstimulated 1315): 1770 MFI
IL10Rα/IL2Rγ receptor [5]
  pSTAT3 MFI, CD8 T cells, 0.0001 nM (unstimulated 1446): 1380 MFI
  pSTAT3 MFI, CD8 T cells, 0.001 nM (unstimulated 1446): 1410 MFI
  pSTAT3 MFI, CD8 T cells, 0.01 nM (unstimulated 1446): 1430 MFI
  pSTAT3 MFI, CD8 T cells, 0.1 nM (unstimulated 1446): 1610 MFI
  pSTAT3 MFI, CD8 T cells, 1 nM (unstimulated 1446): 3060 MFI
  pSTAT3 MFI, CD8 T cells, 10 nM (unstimulated 1446): 4470 MFI
  pSTAT3 MFI, CD8 T cells, 100 nM (unstimulated 1446): 4260 MFI
IL10Rα/IL2Rγ receptor [6]
  pSTAT3 MFI, Monocytes, 0.0001 nM (unstimulated 2116): 2030 MFI
  pSTAT3 MFI, Monocytes, 0.001 nM (unstimulated 2116): 2040 MFI
  pSTAT3 MFI, Monocytes, 0.01 nM (unstimulated 2116): 2030 MFI
  pSTAT3 MFI, Monocytes, 0.1 nM (unstimulated 2116): 2010 MFI
  pSTAT3 MFI, Monocytes, 1 nM (unstimulated 2116): 2060 MFI
  pSTAT3 MFI, Monocytes, 10 nM (unstimulated 2116): 2340 MFI
  pSTAT3 MFI, Monocytes, 100 nM (unstimulated 2116): 2290 MFI

B2: DR449(DR237-DR233) (bispecific antibody)
chain: QVQLQESGGGSVQAGGSLRLSCAASGYTYSMYCMGWFRQAPGKEREGVAQINSDGSTSYADSVKGRFTISKDNAKNTLYLQMNSLKPEDTAMYYCAADSRVYGGSWYERLCGPYTYEYNYWGQGTQVTVSSGGGSQVQLQESGGGSVQAGGSLRLSCTASGFTFDDSDMGWYRQAPGNECELVSTISSDGSTYYADSVKGRFTISQDNAKNTVYLQMNSLKPEDTAVYYCAAEPRGYYSNYGGRRECNYWGQGTQVTVSSASHHHHHH
IL10Rα/IL2Rγ receptor [1]
  pSTAT3 MFI, B cells, 100 nM (unstimulated 1045): 1090 MFI
  pSTAT3 MFI, CD4+ T cells, 100 nM (unstimulated 1778): 2700 MFI
  pSTAT3 MFI, CD8+ T cells, 100 nM (unstimulated 1288): 1880 MFI
  pSTAT3 MFI, Monocytes, 100 nM (unstimulated 1787): 1880 MFI
  pSTAT3 MFI, NK cells, 100 nM (unstimulated 1149): 1250 MFI

B3: DR392(DR229-DR236) (bispecific antibody)
chain: QVQLQESGGGLVQPGGSLRLSCTASGFSFSSYPMTWARQAPGKGLEWVSTIASDGGSTAYAASVEGRFTISRDNAKSTLYLQLNSLKTEDTAMYYCTKGYGDGTPAPGQGTQVTVSSGGGSQVQLQESGGGSVQAGGSLRLSCAASRFTYSSYCMGWFRQAPGKEREGVASIDSDGSTSYTDSVKGRFTISKDNAKNTLYLQMNSLKPEDTAMYYCALDLMSTVVPGFCGFLLSAGMDYWGKGTQVTVSSASHHHHHH
IL10Rα/IL2Rγ receptor [1]
  pSTAT3 MFI, B cells, 100 nM (unstimulated 1045): 1060 MFI
  pSTAT3 MFI, CD4+ T cells, 100 nM (unstimulated 1778): 3340 MFI
  pSTAT3 MFI, CD8+ T cells, 100 nM (unstimulated 1288): 2390 MFI
  pSTAT3 MFI, Monocytes, 100 nM (unstimulated 1787): 1890 MFI
  pSTAT3 MFI, NK cells, 100 nM (unstimulated 1149): 1280 MFI

B4: DR442(DR236-DR232) (bispecific antibody)
chain: QVQLQESGGGSVQAGGSLRLSCAASRFTYSSYCMGWFRQAPGKEREGVASIDSDGSTSYTDSVKGRFTISKDNAKNTLYLQMNSLKPEDTAMYYCALDLMSTVVPGFCGFLLSAGMDYWGKGTQVTVSSGGGSQVQLQESGGGSVQAGGSLRLSCVASGYTSCMGWFRQAPGKEREAVATIYTRGRSIYYADSVKGRFTISQDNAKNTLYLQMNSLKPEDIAMYSCAAGGYSWSAGCEFNYWGQGTQVTVSSASHHHHHH
IL10Rα/IL2Rγ receptor [1]
  pSTAT3 MFI, B cells, 100 nM (unstimulated 1045): 1050 MFI
  pSTAT3 MFI, CD4+ T cells, 100 nM (unstimulated 1778): 3110 MFI
  pSTAT3 MFI, CD8+ T cells, 100 nM (unstimulated 1288): 2100 MFI
  pSTAT3 MFI, Monocytes, 100 nM (unstimulated 1787): 1790 MFI
  pSTAT3 MFI, NK cells, 100 nM (unstimulated 1149): 1220 MFI
